Measured values taken from patent publication US20220195028A1 (Janssen / Centocor, published 2022).
Values belong to the binder of their own block, whether it stands above or below them.

Key:
[1] = target: T1, recombinant human TNFα (human, UniProt P01375 77-233); assay: cell-based or functional assay
[2] = target: T1, recombinant human TNFα; assay: 125I-TNFα binding to plate-coated p55-sf2 in presence of varying amounts of mAb in hybridoma supernatant
Experimental: (§1) 50:l of p55-sf2 at 0.5:g/ml in PBS was added to Optiplates to coat the wells during a one-hour incubation at 37° C. Serial dilutions of the eight TNV cell supernatants were prepared in 96-well round-bottom plates using PBS/0.1% BSA as diluent. […] The mixture was preincubated for one hour at RT. The coated Optiplates were washed to remove unbound p55-sf2 and 50:l of the ¹²⁵I-TNFα/cell supernatant mixture was transferred to the Optiplates. After 2 hrs at RT, Optiplates were washed three times with PBS-Tween. 100:l of Microscint-20 was added and the cpm bound determined using the TopCount gamma counter.
A simple binding assay was done to determine whether the eight TNV mAbs contained in hybridoma cell supernatant were capable of blocking TNFα binding to receptor. The concentrations of the TNV mAbs in their respective cell supernatants were first determined by standard ELISA analysis for human IgG.

[3] = target: T1, recombinant human TNFα; assay: competition radioligand assay: mAb in hybridoma supernatant preincubated with 5 ng/ml 125I-TNFα, then binding of TNFα to plate-coated p55-sf2 counted as cpm bound
Experimental: Varying amounts of hybridoma cell supernatants containing known amounts of TNV mAb were preincubated with a fixed concentration (5 ng/ml) of ¹²⁵I-labeled TNFα. […] The amount of TNFα that bound to the p55 receptor in the presence of the mAbs was determined after washing away the unbound material and counting using a gamma counter. Although eight TNV mAb samples were tested in these experiments, for simplicity three of the mAbs that were shown by DNA sequence analyses to be identical to one of the other TNV mAbs (see Section 5.2.2) are not shown here. Each sample was tested in duplicate. The results shown are representative of two independent experiments.
as §1

- neutralizing TNFα bioactivity (potency relative to TNV14) [1]: 4 fold
- fold better at blocking TNF binding to p55-sf2 (against TNV118 and TNV14) [2]: ~4 fold
- IC50 (read off the curve) [3]: ~4 ng/mL
B1: TNV148 (antibody, human IgG1, V domains shown)
VH: QVQLVESGGGVVQPGRSLRLSCAASGFIFSSYAMHWVRQAPGNGLEWVAFMSYDGSNKKYADSVKGRFTISRDNPKNTLYLQMNSLRAEDTAVYYCARDRGIAAGGNYYYYGMDVWGQGTTVTVSS
VL: EIVLTQSPATLSLSPGERATLSCRASQSVYSYLAWYQQKPGQAPRLLIYDASNRATGIPARFSGSGSGTDFTLTISSLEPEDFAVYYCQQRSNWPPFTFGPGTKVDIKR
notes: also called GenTNV148.26.12; C420A

- fold better at blocking TNF binding to p55-sf2 (against TNV118 and TNV14) [2]: ~4 fold
B2: TNV86 (antibody, human IgG1, V domains shown)
VH: B1 VH
VL: B1 VL
notes: also called GenTNV86.14.34; C417A
